Earlier results in patent publication US7759315B2, “Treatment of inflammatory conditions of the intestine” (CSL Behring AG, priority 2005, dated 2010).
Non-standard residues stand in square brackets, D forms with d. No end group written: not given here. Nal = naphthylalanine (source code Z); Aib = CC(C)(N)C(=O)O

Columns and labels:
[1] = percent helicity; for He (%): micelles
[2] = biological target: T1, LCAT (Homo sapiens, UniProt P04180)
T1 sequence (P04180 25-440): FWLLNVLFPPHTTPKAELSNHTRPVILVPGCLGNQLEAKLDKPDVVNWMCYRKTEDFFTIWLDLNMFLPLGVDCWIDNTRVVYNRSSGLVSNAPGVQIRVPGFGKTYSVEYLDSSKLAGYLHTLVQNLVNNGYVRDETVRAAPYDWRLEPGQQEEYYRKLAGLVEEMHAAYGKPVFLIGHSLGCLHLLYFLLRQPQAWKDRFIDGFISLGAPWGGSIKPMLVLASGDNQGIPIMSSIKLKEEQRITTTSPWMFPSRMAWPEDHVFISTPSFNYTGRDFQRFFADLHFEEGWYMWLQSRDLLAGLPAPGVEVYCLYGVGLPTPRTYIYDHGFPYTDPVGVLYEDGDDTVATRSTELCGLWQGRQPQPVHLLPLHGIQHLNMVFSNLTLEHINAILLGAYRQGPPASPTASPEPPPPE

| ACTIVITY (%) LCAT [2] [%] | Substance | He (%) [1] | He (%) SUVs ([1]; SUVs) [%] | He (%) free ([1]; free peptide) [%] |
| --- | --- | --- | --- | --- |
|  | Ac-PVLDEFREKLNEELEALKQKLK-NH2 [Peptide 75, reference compound] | 28% |  |  |
| 5 | DWFKAFYDKVAEKFKEAF [Peptide 243] | 64% |  |  |
| 10 | DWLKAFYDKVAEKLKEAF* (not fully specified (N-terminus, C-terminus); printed as DWLKAFYDKVAEKLKEAF*) [Peptide 240] | 68% |  |  |
| 4 | DWLKAFYDKVFEKFKEFF [Peptide 245] | 77% |  |  |
| 5 | DWLKAPYDKVAEKLKEAF (DWLKAFYDKVAEKLKEAF) [Peptide 244, 18A peptide (Anantharamiah et al., 1985), reference compound] | 40% |  |  |
| 4 | EWLEAFYKKVLEKLKELF [Peptide 246, 18AM4 peptide (Rosseneu et al., WO93/25581; Corijn et al., 1993), reference compound] | 44% |  |  |
| 11 | EWLEAFYKKVLEKLKELF* (Ac-EWLEAFYKKVLEKLKELF-NH2) [Peptide 239, Ac-18AM4-C(O)NH2 peptide (Brasseur, 1993), reference compound] | 49% |  |  |
| 3 | EWLKAFYEKVLEKLKELF [Peptide 248, [Glu^1.8; Leu^5,11,17]; 18A peptide (Epand et al., 1987), reference compound] | 45% |  |  |
| 19 | EWLKAFYEKVLEKLKELF* (Ac-EWLKAFYEKVLEKLKELF-NH2) [Peptide 238, Ac-18AMOD-C(O)NH2 peptide (Epand et al., 1987), reference compound] | 72% |  |  |
| 100 | GVLELFENLLERLLDALQKKLK [Peptide 145] | 51% |  |  |
| 2 | KLKQKLAELLENLLERFLDLVP [Peptide 99] | 88% |  |  |
| 11 | LDDLLQKWAEAFNQLLKK [Peptide 237, Id-3 peptide (Labeur et al., 1997), reference compound] | 66% |  |  |
| 1 | PAADAFREAANEAAEAAKQKAK [Peptide 105] | 28% |  |  |
| 81 | PLLDLFRELLEELKQKLK* (not fully specified (N-terminus, C-terminus); printed as PLLDLFRELLEELKQKLK*) [Peptide 197] | 70% |  |  |
| 31 | PLLELLKELLQELLEALKQKLK [Peptide 36] | 100% |  |  |
| 8 | PVLDAFRELLEALAQLKK [Peptide 223] | 56% |  |  |
| 5 | PVLDEFREKLNEALEALKQKLK [Peptide 94, [A^13]-Consensus 22-mer peptide (Anantharamaiah et al., 1990), reference compound] | 70% |  |  |
| 0 | PVLDEFREKLNEPLEALKQKLK [Peptide 113] | 22% |  |  |
| 0 | PVLDEFREKLNERLEALKQKLK [Peptide 109, [R^13]-Consensus 22-mer peptide (Anantharamaiah et al., 1990), reference compound] | 45% |  |  |
| 24 | PVLDEFREKLNEXLEALKQKLK (PVLDEFREKLNE[Aib]LEALKQKLK; not fully specified (C-terminus)) [Peptide 45] | 84% | 25 | 24 |
| 25 | PVLDEFREKLNEXWEALKQKLK (PVLDEFREKLNE[Aib]WEALKQKLK; not fully specified (C-terminus)) [Peptide 42] | 74% |  |  |
| 9 | PVLDEFRELLFEXLEALKQKLK (PVLDEFRELLFE[Aib]LEALKQKLK; not fully specified (C-terminus)) [Peptide 76] | 88% |  |  |
| 6 | PVLDEFRELLNEXLEALKQKLK (PVLDEFRELLNE[Aib]LEALKQKLK; not fully specified (C-terminus)) [Peptide 91] | 100% |  |  |
| 12 | PVLDEFRELLYEXLEALKQKLK (PVLDEFRELLYE[Aib]LEALKQKLK; not fully specified (C-terminus)) [Peptide 70] | 78% |  |  |
| 16 | PVLDEWREKLNEXLEALKQKLK (PVLDEWREKLNE[Aib]LEALKQKLK; not fully specified (C-terminus)) [Peptide 62] | 85% |  |  |
| 51 | PVLDFFRELLNEXLEALKQKLK (PVLDFFRELLNE[Aib]LEALKQKLK; not fully specified (C-terminus)) [Peptide 25] | 82% |  |  |

| ACTIVITY (%) LCAT [2] [%] | Substance | He (%) [1] | He (%) SUVs ([1]; SUVs) [%] | He (%) free ([1]; free peptide) [%] |
| --- | --- | --- | --- | --- |
| 83 | PVLDLFKELLNELLEALKQKLK [Peptide 7] | 89% |  |  |
| 34 | PVLDLFLELLNEXLEALKQKLK (PVLDLFLELLNE[Aib]LEALKQKLK; not fully specified (C-terminus)) [Peptide 31] | 98% |  |  |
| 25 | PVLDLFNELLRELLEALQKKLK [Peptide 40] | 84% |  |  |
| 23 | PVLDLFREKLNEXLEALKQKLK (PVLDLFREKLNE[Aib]LEALKQKLK; not fully specified (C-terminus)) [Peptide 46] | 86% |  |  |
| 46 | PVLDLFRELLEELKQKLK [Peptide 210] | 63% |  |  |
| 96 | PVLDLFRELLEELKQKLK* (not fully specified (N-terminus, C-terminus); printed as PVLDLFRELLEELKQKLK*) [Peptide 193] | 88% |  |  |
| 22 | PVLDLFRELLEELQKKLK [Peptide 220] | 64% |  |  |
| 38 | PVLDLFRELLEEWKQKLK* (not fully specified (N-terminus, C-terminus); printed as PVLDLFRELLEEWKQKLK*) [Peptide 215] | 63% |  |  |
| 30 | PVLDLFRELLELLKQKLK [Peptide 217] | 78% |  |  |
| 83 | PVLDLFRELLNEGLEALKQKLK [Peptide 8] | 90% |  |  |
| 38 | PVLDLFRELLNELLEALKQKLK^† [Peptide 30] | 90% |  |  |
| 16 | PVLDLFRELLNELLEALKQ~~~ [Peptide 60] | 83% |  |  |
| 79 | PVLDLFRELLNELLEAZKQKLK (PVLDLFRELLNELLEA[Nal]KQKLK; not fully specified (C-terminus)) [Peptide 10] | 87% |  |  |
| 98 | PVLDLFRELLNELLEWLKQKLK [Peptide 3] | 95% |  |  |
| 120 | PVLDLFRELLNELLEZLKQKLK (PVLDLFRELLNELLE[Nal]LKQKLK; not fully specified (C-terminus)) [Peptide 1] | 85% |  |  |
| 47 | PVLDLFRELLNELLQKLK [Peptide 209] | 71% |  |  |
| 40 | PVLDLFRELLNELWEALKQKLK [Peptide 28] | 98% |  |  |
| 44 | PVLDLFRELLNELZEALKQKLK (PVLDLFRELLNEL[Nal]EALKQKLK; not fully specified (C-terminus)) [Peptide 27] | 92% |  |  |
| 19 | PVLDLFRELLNEWLEALKQKLK [Peptide 54] | 71% |  |  |
| 80 | PVLDLFRELLNEXLEALKQKLK (PVLDLFRELLNE[Aib]LEALKQKLK; not fully specified (C-terminus)) [Peptide 6] | 93% |  |  |
| 29 | PVLDLFRELLNEXLEAWKQKLK (PVLDLFRELLNE[Aib]LEAWKQKLK; not fully specified (C-terminus)) [Peptide 38] | 49% |  |  |
| 11 | PVLDLFRELLNEXLWALKQKLK (PVLDLFRELLNE[Aib]LWALKQKLK; not fully specified (C-terminus)) [Peptide 72] | sp |  |  |
| 5 | PVLDLFRELLNLXLEALKQKLK (PVLDLFRELLNL[Aib]LEALKQKLK; not fully specified (C-terminus)) [Peptide 95] | sp |  |  |
| 2 | PVLDLFRELLNWXLEALKQKLK (PVLDLFRELLNW[Aib]LEALKQKLK; not fully specified (C-terminus)) [Peptide 101] | sp |  |  |
| 21 | PVLDLFRELLWEXLEALKQKLK (PVLDLFRELLWE[Aib]LEALKQKLK; not fully specified (C-terminus)) [Peptide 50] | 84% |  |  |
| 6 | ~~~DEFREKLNEXLEALKQKLK (DEFREKLNE[Aib]LEALKQKLK; not fully specified (C-terminus); printed as ~~~DEFREKLNEXLEALKQKLK) [Peptide 90] |  |  |  |

| Substance | ACTIVITY (%) LCAT [2] [%] | He (%) [1] | He (%) SUVs ([1]; SUVs) [%] | He (%) free ([1]; free peptide) [%] |
| --- | --- | --- | --- | --- |
| PVLDLFRELLEELLKALKKKLK [Peptide 39] | 25 | 69% |  |  |
| PVLDLFRELLNELLEALKQKLK [Peptide 4] | 93 | 95% |  |  |
